Measurements: patent publication US20210330692, “CCR7 APTAMERS AND USES THEREOF” (CITY OF HOPE, published 2021)

Target: CCR7 (UniProt P32248 P32248:25-378)
Test: EMSA; + in gel shift assay

CCR7, sequence (P32248 25-378, one chain of several): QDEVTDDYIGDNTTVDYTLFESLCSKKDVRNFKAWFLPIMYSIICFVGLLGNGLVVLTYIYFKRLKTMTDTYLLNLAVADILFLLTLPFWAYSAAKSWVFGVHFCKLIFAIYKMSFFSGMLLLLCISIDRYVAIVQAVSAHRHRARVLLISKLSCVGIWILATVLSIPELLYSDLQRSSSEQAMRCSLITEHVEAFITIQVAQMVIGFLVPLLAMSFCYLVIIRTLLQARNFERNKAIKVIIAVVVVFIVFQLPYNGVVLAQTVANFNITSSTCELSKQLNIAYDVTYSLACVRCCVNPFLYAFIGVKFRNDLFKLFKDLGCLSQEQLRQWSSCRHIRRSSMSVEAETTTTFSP

B1: C-6 (ssRNA)
RNA: GGGAGGACGAUGCGGUCCAUCGUCUCUUAUCGUCUCUUGUCGCGCCAGACGACUCGCCCGA
binding result: binds
